Experimental data as given in patent US20140322220A1 (Bayer, published 2014).
Changes are numbered by the printed parent chain. Values belong to the binder of their own block, whether it stands above or below them.

Columns and labels:
hFGFR4-Fc = molecular target: T1, hFGFR4-Fc (human, UniProt P22455 22-369, biotinylated with biotin-LC-NHS); test: ELISA on coated biotinylated Fc fusion
T1 construct: Bought, R&D Systems, printed Cat. No. 685-MF
T1 sequence (looked up): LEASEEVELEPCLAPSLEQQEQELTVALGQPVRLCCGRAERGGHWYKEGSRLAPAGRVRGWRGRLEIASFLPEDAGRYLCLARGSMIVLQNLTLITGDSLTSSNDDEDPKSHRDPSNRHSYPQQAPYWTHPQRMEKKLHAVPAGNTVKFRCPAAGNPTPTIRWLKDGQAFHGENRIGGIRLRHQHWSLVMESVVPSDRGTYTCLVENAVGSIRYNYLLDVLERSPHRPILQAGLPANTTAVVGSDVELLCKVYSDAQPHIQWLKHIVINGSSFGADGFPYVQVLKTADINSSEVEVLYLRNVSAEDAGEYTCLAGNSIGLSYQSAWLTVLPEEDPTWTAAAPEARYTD
Procedure: (§1) For the ELISA 96-well plates pre-coated with streptavidin (Pierce, 15500) were coated over night at 4° C. with 1 μg/ml biotinylated protein. Wells coated with biotinylated TRAIL-Fc served as a reference. The next day plates were washed 3 times with PBST, treated with blocking reagent, and washed again 3 times with PBST. 100 μl of purified Fabs (1 μg/ml) were added and incubated for 1 h at r.t. After washing 3 times with PBST, an anti-hIgG (Fab-specific) coupled to HRP (1:2500 diluted; Sigma; A 0293) was added and incubated for 1 h at Lt. Color reaction was developed by addition of 50 μl TMB (Invitrogen, 2023) and stopped after 5-15 min by adding 50 μl H₂SO₄ (Merck, 1120801000). Colorimetric reaction was recorded at […] in a plate reader (Tecan). Wells containing TRAIL-Fc were used as background values and the signal to background ratios were calculated as summarized in Table 4.

hFGFR1β-Fc (IIIc) = molecular target: T2, hFGFR1β-Fc (IIIc) (human, UniProt P11362-14 22-285, limits assumed, biotinylated with biotin-LC-NHS); test: ELISA on coated biotinylated Fc fusion
T2 construct: Bought, R&D Systems 661-FR
T2 sequence (looked up): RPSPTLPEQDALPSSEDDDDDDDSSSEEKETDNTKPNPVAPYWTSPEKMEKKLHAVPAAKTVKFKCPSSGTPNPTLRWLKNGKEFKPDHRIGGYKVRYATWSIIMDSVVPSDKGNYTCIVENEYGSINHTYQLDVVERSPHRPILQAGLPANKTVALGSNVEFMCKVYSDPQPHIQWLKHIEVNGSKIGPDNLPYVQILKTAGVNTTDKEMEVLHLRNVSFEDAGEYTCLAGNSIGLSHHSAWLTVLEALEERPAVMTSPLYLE
Procedure: as §1

hFGFR3-Fc (IIIb) = molecular target: T3, hFGFR3-Fc (IIIb) (human, UniProt P22607-2 23-377, biotinylated with biotin-LC-NHS); test: ELISA on coated biotinylated Fc fusion
T3 construct: Bought, R&D Systems 1264-FR
T3 sequence (looked up): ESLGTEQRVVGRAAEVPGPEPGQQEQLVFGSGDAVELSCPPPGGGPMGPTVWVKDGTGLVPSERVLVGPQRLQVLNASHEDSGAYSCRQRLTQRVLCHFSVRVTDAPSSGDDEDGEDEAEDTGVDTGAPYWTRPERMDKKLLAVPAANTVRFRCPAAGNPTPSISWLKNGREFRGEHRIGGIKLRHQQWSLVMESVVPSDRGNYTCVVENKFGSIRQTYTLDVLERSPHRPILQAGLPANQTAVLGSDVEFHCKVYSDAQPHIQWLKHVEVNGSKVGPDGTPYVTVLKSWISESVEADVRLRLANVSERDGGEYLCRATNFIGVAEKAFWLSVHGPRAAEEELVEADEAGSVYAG
Procedure: as §1

mFGFR2β-Fc (IIIb) = molecular target: T4, mFGFR2β-Fc (IIIb) (murine, UniProt P21803-2 22-263, limits assumed, biotinylated with biotin-LC-NHS); test: ELISA, 1 ug/ml Fab on coated antigen; grade of signal to background (+ 2-3, ++ 3-5, +++ >5)
T4 construct: Bought, R&D Systems 708-MF
Procedure: as §1

hFGFR2α-Fc (IIIb) = molecular target: T5, hFGFR2α-Fc (IIIb) (human, UniProt P21802 22-377, biotinylated with biotin-LC-NHS); test: as above
T5 construct: Bought, R&D Systems 663-FR, soluble Fc fusion
T5 chain: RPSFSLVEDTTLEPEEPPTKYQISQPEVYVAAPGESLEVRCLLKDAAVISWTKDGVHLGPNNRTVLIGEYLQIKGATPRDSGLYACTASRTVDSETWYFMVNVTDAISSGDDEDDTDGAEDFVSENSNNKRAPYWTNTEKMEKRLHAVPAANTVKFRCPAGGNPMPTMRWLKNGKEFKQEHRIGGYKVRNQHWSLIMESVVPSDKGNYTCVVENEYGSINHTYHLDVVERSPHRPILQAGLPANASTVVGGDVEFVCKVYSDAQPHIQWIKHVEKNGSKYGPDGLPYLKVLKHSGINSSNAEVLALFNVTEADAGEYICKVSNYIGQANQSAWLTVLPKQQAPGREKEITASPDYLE
Procedure: as §1

hFGFR2β-Fc (IIIb) = molecular target: T6, hFGFR2β-Fc (IIIb) (human, UniProt P21802 22-377, biotinylated with biotin-LC-NHS); test: as above
T6 construct: also called FGFR2-2β Fc (IIIb)
T6 chain: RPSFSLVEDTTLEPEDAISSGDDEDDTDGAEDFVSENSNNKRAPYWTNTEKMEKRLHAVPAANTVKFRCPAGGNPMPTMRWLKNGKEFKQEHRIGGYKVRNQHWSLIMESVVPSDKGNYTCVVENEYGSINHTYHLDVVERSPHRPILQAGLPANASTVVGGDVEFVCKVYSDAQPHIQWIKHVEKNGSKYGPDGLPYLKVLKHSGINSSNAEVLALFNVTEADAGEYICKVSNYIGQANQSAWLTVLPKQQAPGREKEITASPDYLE
Procedure: as §1

[1] = molecular target: T7, recombinant human FGFR2 (Met 1-Glu 377) with C-terminal polyhistidine tag (human, UniProt P21802 22-377); test: protein binding ELISA, antibody captured by anti-human IgG Fc, FGFR2-His titrated
T7 construct: The range is that of the expressed DNA and begins at Met 1; also called His-tagged FGFR2; recombinant human FGFR2-IIIc molecule
Source text: (§2) Two different types of ELISA were used to determine the binding improvement of mutated variants: a) Peptide Binding ELISA: a synthetic peptide comprising the amino acid sequence of the epitope linked C-terminally to a biotinylated lysine […]-Ttds-Lys(Biotin) (peptide sequence derived from SEQ ID NO:63, synthesized by JPT Peptide Technology GmbH, Berlin, Germany), and b) Recombinant Protein Binding ELISA: recombinant human FGFR2 (DNA sequence of human FGFR2 (NP 000132.3) Met 1-Glu 377, fused with a polyhistidine tag at the C-terminus; #10824-1-1081-1, Sin θ Biological Inc., Beijing, China).
(§3) Briefly, in both ELISA formats MTP plates (384 well Maxisorp, Nunc) were coated with 20 μl, anti-human IgG Fc specific (#12136; sigma) at 2.2 μg/ml for 2.5 h at 37° C. in coating buffer (#121125 Candor Bioscience GmbH). […] Anti-FGFR2 variants were immobilized in concentrations of 0.035 μg/ml (peptide based assay) or 0.2 μg/ml (recombinant human FGFR2 protein based assay) in 10% Smart Block in PBST depending on the format and variants to be analyzed by incubation of 20 μl for one hour at 20-22° C. After one washing step using 50 μl PBST, 20 μl quadruplets of the antigen dilution series in 10% SmartBlock in PBST with a maximum concentration of 100 nM were added and incubated for 1 h at 20-22° C. and the washing step was repeated 3 times. For the detection of the biotinylated epitope peptide 20 μl of streptavidine/POD conjugate (# S5512, Sigma) in a 1:1000 dilution in 10% SmartBlock in PBST were applied for one hour at 20-22° C. For the detection of the recombinant FGFR2 protein 20 μl of anti-His/HRP conjugate (#71840, novagen) in a 1:10000 dilution in 10% SmartBlock in PBST were applied for one hour at 20-22° C. After 3 washing steps 20 μl of 10 μM amplex red substrate (# A12222, Invitrogen) in 50 mM Sodium hydrogen phosphate, pH 7.6, were added and the fluorescence signal was detected using a common fluorescence reader, e.g. Tecan M1000. EC50 values were evaluated by fitting the data (Sigmoida) dose-response, variable slope, bottom set to background; GraphPad Prism software).

[2] = molecular target: T7, recombinant human FGFR2 (Met 1-Glu 377) …; test: protein binding ELISA; against TPP-1415
Source text: as §2, §3

T4 sequence (P21803 other isoform, or with tags, fused parts or gaps limits assumed): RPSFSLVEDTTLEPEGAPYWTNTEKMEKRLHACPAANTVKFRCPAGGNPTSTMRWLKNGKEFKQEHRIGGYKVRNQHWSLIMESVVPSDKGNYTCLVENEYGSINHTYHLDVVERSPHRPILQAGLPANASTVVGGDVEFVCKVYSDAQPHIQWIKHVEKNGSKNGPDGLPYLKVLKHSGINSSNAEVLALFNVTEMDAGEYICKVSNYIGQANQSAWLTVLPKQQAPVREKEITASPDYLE

- binding result (hFGFR4-Fc): no binding
- binding result (hFGFR1β-Fc (IIIc)): no binding
- binding result (hFGFR3-Fc (IIIb)): no binding
- ELISA signal to background ratio (mFGFR2β-Fc (IIIb)): > 5 ratio
- ELISA signal to background ratio (hFGFR2α-Fc (IIIb)): > 5 ratio
- ELISA signal to background ratio (hFGFR2β-Fc (IIIb)): > 5 ratio
B1: M048-D01 (soluble Fab) (Fab, V domains shown)
VH: EVQLLESGGGLVQPGGSLRLSCAASGFTFSSYAMSWVRQAPGKGLEWVSAISGSGTSTYYADSVKGRFTISRDNSKNTLYLQMNSLRAEDTAVYYCARVRYNWNHGDWFDPWGQGTLVTVSS
VL: QSVLTQPPSASGTPGQRVTISCSGSSSNIGNNYVSWYQQLPGTAPKLLIYENYNRPAGVPDRFSGSKSGTSASLAISGLRSEDEADYYCSSWDDSLNYWVFGGGTKLTVL
notes: Soluble Fab from E. coli, purified through its His-tag

- binding result (hFGFR4-Fc): no binding
- binding result (hFGFR1β-Fc (IIIc)): no binding
- binding result (hFGFR3-Fc (IIIb)): no binding
- ELISA signal to background ratio (mFGFR2β-Fc (IIIb)): > 5 ratio
- ELISA signal to background ratio (hFGFR2α-Fc (IIIb)): > 5 ratio
- ELISA signal to background ratio (hFGFR2β-Fc (IIIb)): > 5 ratio
B2: M021-H02 (soluble Fab) (Fab, V domains shown)
VH: EVQLLESGGGLVQPGGSLRLSCAASGFTFSNYGIHWVRQAPGKGLEWVAVISYDGSNKYYADSVKGRFTISRDNSKNTLYLQMNSLRAEDTAMYYCARDSSSAEDYWGQGTLVTVSS
VL: QSVLTQPPSASGTPGQRVTISCSGSSSNTGSNTVNWYQQLPGTAPKLLIYRNNQRPSGVPDRFSGSKSGTSASLAISGLRSEDEADYYCETWDSNTRGVVFGGGTKLTVL
notes: as for B1

- binding result (hFGFR4-Fc): no binding
- binding result (hFGFR1β-Fc (IIIc)): no binding
- binding result (hFGFR3-Fc (IIIb)): no binding
- ELISA signal to background ratio (mFGFR2β-Fc (IIIb)): > 5 ratio
- ELISA signal to background ratio (hFGFR2α-Fc (IIIb)): > 5 ratio
- ELISA signal to background ratio (hFGFR2β-Fc (IIIb)): 3 to 5 ratio
B3: M054-A05 (soluble Fab) (Fab, V domains shown)
VH: EVQLLESGGGLVQPGGSLRLSCAASGFTFSNYGMYWVRQAPGKGLEWVAVISYDGTNKYYVDSVKGRFTISRDNSKNTLYLQMNSLRAEDTAVYYCAKDLPKWGGFDSWGQGTLVTVSS
VL: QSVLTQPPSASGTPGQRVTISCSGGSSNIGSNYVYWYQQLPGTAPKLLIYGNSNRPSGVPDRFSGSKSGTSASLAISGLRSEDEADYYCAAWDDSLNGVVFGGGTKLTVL
notes: as for B1

- EC50 [1]: 0.22 nM
- fold EC50 reduction [2]: 37 fold
B4: TPP-1406 (antibody, human IgG1, lambda, V domains shown)
VH: EVQLLESGGGLVQPGGSLRLSCAASGFTFSHSGMHWVRQAPGKGLEWVAVISYDGSNKYYADSVKGRFTISRDNSKNTLYLQMNSLRAEDTAVYYCAREQPLYDFEYWGQGTLVTVSS
VL: AQSVLTQPPSASGTPGQRVTISCSGSSSNIGDNGVNWYQQLPGTAPKLLIYGASERPSGVPDRFSGSKSGTSASLAISGLRSEDEADYYCAAWDDSLDGWTFGGGTKLTVLG
notes: Matured variant of M047-D08

- binding result (hFGFR4-Fc): no binding
- binding result (hFGFR1β-Fc (IIIc)): no binding
- binding result (hFGFR3-Fc (IIIb)): no binding
- ELISA signal to background ratio (mFGFR2β-Fc (IIIb)): > 5 ratio
- ELISA signal to background ratio (hFGFR2α-Fc (IIIb)): > 5 ratio
- ELISA signal to background ratio (hFGFR2β-Fc (IIIb)): > 5 ratio
B5: M017-B02 (soluble Fab) (Fab, V domains shown)
VH: B4 VH with S30R, H31T, Q100S, L102G
VL: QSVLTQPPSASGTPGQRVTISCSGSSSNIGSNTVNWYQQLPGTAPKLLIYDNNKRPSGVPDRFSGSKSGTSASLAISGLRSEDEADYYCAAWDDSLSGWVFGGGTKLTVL
notes: as for B1

- EC50 [1]: 2.1 nM
- fold EC50 reduction [2]: 3.8 fold
B6: TPP-1409 (antibody, human IgG1, lambda, V domains shown)
VH: B4 VH with H31T, Q100S, L102G
VL: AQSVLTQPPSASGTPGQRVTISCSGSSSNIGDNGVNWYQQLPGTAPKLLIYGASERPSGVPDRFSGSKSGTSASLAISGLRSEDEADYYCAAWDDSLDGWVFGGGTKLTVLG
notes: Matured variant of M047-D08

- EC50 [1]: 0.61 nM
- fold EC50 reduction [2]: 13 fold
B7: TPP-1411 (antibody, human IgG1, lambda, V domains shown)
VH: B4 VH with L18M, H31S, L102G
VL: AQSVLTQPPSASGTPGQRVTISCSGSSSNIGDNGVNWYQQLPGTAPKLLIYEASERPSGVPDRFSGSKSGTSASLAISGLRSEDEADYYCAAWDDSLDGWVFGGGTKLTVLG
notes: Matured variant of M047-D08

- EC50 [1]: 0.23 nM
- fold EC50 reduction [2]: 35 fold
B8: TPP-1407 (antibody, human IgG1, lambda, V domains shown)
VH: B4 VH
VL: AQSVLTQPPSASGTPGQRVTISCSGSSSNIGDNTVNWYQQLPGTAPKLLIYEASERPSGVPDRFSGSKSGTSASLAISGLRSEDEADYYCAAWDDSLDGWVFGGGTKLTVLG
notes: Matured variant of M047-D08

- EC50 [1]: 0.29 nM
- fold EC50 reduction [2]: 28 fold
B9: TPP-1412 (antibody, human IgG1, lambda, V domains shown)
VH: B4 VH with Q100A
VL: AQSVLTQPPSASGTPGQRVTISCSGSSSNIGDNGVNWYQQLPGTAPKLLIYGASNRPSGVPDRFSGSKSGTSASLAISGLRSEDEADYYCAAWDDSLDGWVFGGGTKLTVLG
notes: Matured variant of M047-D08

- EC50 [1]: 0.66 nM
- fold EC50 reduction [2]: 12 fold
B10: TPP-1410 (antibody, human IgG1, lambda, V domains shown)
VH: B4 VH with Q100A, L102G
VL: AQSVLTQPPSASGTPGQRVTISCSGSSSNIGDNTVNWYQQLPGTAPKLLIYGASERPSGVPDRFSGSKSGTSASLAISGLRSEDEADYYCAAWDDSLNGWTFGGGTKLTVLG
notes: Matured variant of M047-D08
